Data reported in paper PMC2828450, “Crystal structure of the signaling helix coiled-coil domain of the β1 subunit of the soluble guanylyl cyclase” (BMC Structural Biology, 2010).
Several values for one entry are separate records, joined by “and”; a condition that tells them apart may be missing. Equal entries are not always repeated.

What was measured:
[1] = biological target: sGC beta1 H-NOXA domain H-NOXA (UniProt Q02153); conditions: cited from earlier work
[2] = biological target: sGC beta1 catalytic domain catalytic domain (UniProt Q02153); conditions: cited from earlier work
[3] = biological target: the molecule itself; test: SEC; analytic gel filtration on a Superdex 75 column calibrated with Mw standards, before crystallization; major 38.5 kD and minor 19.5 kD species

sGC beta1 H-NOXA domain H-NOXA (from UniProt Q02153)
Kd [1]: < 60 µM

sGC beta1 catalytic domain catalytic domain (from UniProt Q02153)
Kd [2]: 6 µM

B1: Rattus norvegicus soluble guanylyl cyclase β1 subunit coiled-coil domain, residues 348-409, I371M (domain or fragment)
chain: GSHMATRDLVLLGEQFREEYKLTQELEMLTDRLQLTLRALEDEKKKTDTLLYSVLPPSVANELRHK
modifications: not fully specified (residues 4, 28); printed as gshmATRDLVLLGEQFREEYKLTQELE**M**LTDRLQLTLRALEDEKKKTDTLLYSVLPPSVANELRHK; also: expressed with selenomethionine (Met replaced by SeMet)
notes: N-terminal cloning artefact left after thrombin cleavage of the pET15b tag; The printed calculated mass of 7712.86 Da fits GSHM + 348-409 with I371M (my calculation; wild type would be about 7694.8 Da), and only the I371M construct's purification is described; One molecule is therefore used for all three experiments; also called sGCβ1 CC; rsGCβ1 CC domain; source: E. coli BL21 (DE3) pLysS, …
stoichiometry N [3]: 4 and 2
